Experimental findings from publication PMC3432753 are described below.

In the experiment the target is Recombinant human endostatin (human) (UniProt P39060). As to the kind of experiment: SPR.

pKd: −log10 of the molar value.

Chain of UniProt P39060 (P39060 1572-1754): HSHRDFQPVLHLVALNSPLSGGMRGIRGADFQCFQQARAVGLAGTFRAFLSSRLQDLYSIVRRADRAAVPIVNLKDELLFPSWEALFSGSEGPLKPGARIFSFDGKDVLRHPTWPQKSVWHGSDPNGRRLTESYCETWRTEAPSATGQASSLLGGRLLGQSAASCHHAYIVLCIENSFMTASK

Turning to “α3β1 integrin (Millipore) (from UniProt P26006 33-1051; P05556 21-728) (complex)”, the pKd was 8.05.
